{"source": "paper PMC3022805", "about": "(Journal of Biomedical Science, 2011)", "proteins": {"B1": {"name": "apoE3-(72-166) (domain or fragment, human, UniProt P02649 90-184, looked up)", "chain": "KAYKSELEEQLTPVAEETRARLSKELQAAQARLGADMEDVCGRLVQYRGEVQAMLGQSTEELRVRLASHLRKLRKRLLRDADDLQKRLAVYQAGA", "notes": "12 kDa; numbers count on: the mature protein of 299 amino acids; source: E. coli, purified"}, "B2": {"name": "apoE2-(72-166) (domain or fragment, human, UniProt P02649 90-184, looked up)", "chain": "B1 chain with R87C", "notes": "12 kDa; numbers count on: the mature protein of 299 amino acids; cDNA amplified with the printed primers and ligated NdeI-XhoI into pET-29a(+); source: E. coli, purified"}, "B3": {"name": "apoE4-(72-166) (domain or fragment, human, UniProt P02649 90-184, looked up)", "chain": "B1 chain with C41R", "notes": "as for B1"}}, "key": {"[1]": {"target": "the molecule itself", "experiment": "AUC; sedimentation velocity (42,000 rpm, 0.5 mg/ml) and sedimentation equilibrium (10,000, 15,000, 20,000 rpm, 18 h each) fitted together to a global discrete species model (SEDPHAT); PBS pH 7.3, 20°C, no DHPC"}, "[2]": {"target": "the molecule itself", "experiment": "AUC; sedimentation velocity and sedimentation equilibrium fitted together to a global discrete species model (SEDPHAT); PBS pH 7.3 with 5 mM DHPC (submicellar), 20°C"}, "[3]": {"target": "the molecule itself", "experiment": "AUC; sedimentation velocity and sedimentation equilibrium fitted together to a global discrete species model (SEDPHAT); PBS pH 7.3 with 50 mM DHPC (micelles), 20°C"}}, "note": "Positions count from the first letter of the chain named. Where “and” joins values, the source holds several entries; their conditions need not be identical. Equal entries are not always repeated."}
{"protein": "B1", "values": [{"measurement": "stoichiometry N", "setting": "[1]", "result": 6}, {"measurement": "stoichiometry N", "setting": "[2]", "result": 4}, {"measurement": "stoichiometry N", "setting": "[3]", "result": 2}]}
{"protein": "B2", "values": [{"measurement": "stoichiometry N", "setting": "[1]", "result": "2 and 6"}, {"measurement": "stoichiometry N", "setting": "[3]", "result": 4}]}
{"protein": "B3", "values": [{"measurement": "stoichiometry N", "setting": "[1]", "result": 4}, {"measurement": "stoichiometry N", "setting": "[3]", "result": 2}]}
